Patent publication US10004812B2 (priority 2014, dated 2018)
Like-named read-outs stand apart in the source and are kept apart here. *1 amine or outer side, *2 acyl side, *3 side chain or, on linkers, in order; H or OH if unused. Where a SMILES comes first, the peptide text is derived from it. [ ]: non-standard residue; d: D form. The star is where a group is joined. ξ: configuration not given here. NPrTuv(OPr) = CCCO[C@H](C[C@H](C(C)C)N(CCC)[*:1])c1nc(C(=O)[*:2])cs1; Dolaproine = CO[C@@H]([C@@H]1CCCN1)[C@@H](C)C(=O)O; Hexanoyl(6-maleimido) = O=C1C=CC(=O)N1CCCCCC(=O)*; X1 = COC(=O)[C@@H](C)C[C@H](Cc1ccc(O)cc1)N*; Dil = CC[C@H](C)[C@H](NC)[C@@H](CC(=O)O)OC; PABC = O=C(OCc1ccc(N[*:1])cc1)[*:2]; X2 = C[C@@H](N*)[C@@H](O)c1ccccc1; Cit = NC(=O)NCCC[C@H](N)C(=O)O; NMeV = CN[C@H](C(=O)O)C(C)C; ξIle = CC[C@H](C)C(N)C(=O)O; dPip = O=C(O)[C@H]1CCCCN1

Experiments:
[1] = tested on: HT1080 cells; test: Cell proliferation arrest on HT1080 cells (CPA; crystal violet); assay type: cell-based
Description: Microtubule inhibition activity and cytotoxic activity of each new derivative were evaluated through tubulin polymerization inhibition assay (TPI; Tubulin Polymerization assay kit; Cytoskeleton, Cat. #BKO11P), and cell proliferation arrest on HT1080 cells (CPA; crystal violet).

[2] = tested on: HT1080-FAP cell line; assay type: cell-based; conditions: crystal violet viability, FIG. 6, read-out: cytotoxic activity IC50
[3] = tested on: rabbit reticulocyte cell-free lysates
[4] = Table 3, published data; cited from earlier work
[5] = tested on: PAXF-736 pancreas cancer xenograft; test: Anti-tumoral effect in patient-derived xenograft mouse model for pancreas cancer (PAXF-736); assay type: in vivo
Description: Both types of immunoconjugates, recNgA- and cytolysin-conjugates, were evaluated for their anti-tumoral effect in vivo in a patient-derived xenograft mouse model for pancreas cancer (PAXF-736), previously selected for antigen expression.
Immunoconjugates were then administrated once a week intraperitoneally over 5 weeks. Tumor volume and body weight were measured every 2-3 days. Vehicle-treated and Gemcitabine-treated (150 mg/kg) PDX mice were used as negative and positive control groups, respectively.

[6] = biological target: T1, recombinant human ENG (Homo sapiens, UniProt P17813); test: ELISA binding to immobilized recombinant human ENG; conditions: FIG. 3a
T1 sequence (P17813 whole entry, looked up): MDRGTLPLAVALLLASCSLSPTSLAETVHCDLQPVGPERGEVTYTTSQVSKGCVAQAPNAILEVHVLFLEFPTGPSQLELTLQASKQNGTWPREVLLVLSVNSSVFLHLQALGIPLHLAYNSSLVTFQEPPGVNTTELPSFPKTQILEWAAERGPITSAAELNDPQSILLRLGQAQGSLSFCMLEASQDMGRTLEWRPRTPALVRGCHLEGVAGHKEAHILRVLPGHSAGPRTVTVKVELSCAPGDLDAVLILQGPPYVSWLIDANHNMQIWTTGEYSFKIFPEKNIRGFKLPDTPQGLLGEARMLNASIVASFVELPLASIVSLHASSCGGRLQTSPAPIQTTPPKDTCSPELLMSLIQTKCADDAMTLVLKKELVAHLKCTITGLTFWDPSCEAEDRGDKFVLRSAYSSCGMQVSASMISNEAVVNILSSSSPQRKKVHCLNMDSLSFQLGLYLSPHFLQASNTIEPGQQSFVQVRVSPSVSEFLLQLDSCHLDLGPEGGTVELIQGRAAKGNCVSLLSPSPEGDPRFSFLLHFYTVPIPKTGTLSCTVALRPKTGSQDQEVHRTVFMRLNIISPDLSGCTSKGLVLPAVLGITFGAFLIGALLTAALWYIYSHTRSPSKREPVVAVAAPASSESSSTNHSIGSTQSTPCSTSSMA
Description: Bioactivity was analyzed by ELISA using recombinant ENG and detection of bound antibodies with HRP-conjugated anti-human IgG antibodies.

[7] = tested on: HT1080 cells; test: Flow cytometry cell binding, ENG-positive HT1080 cells; design: species or system human; conditions: FIG. 3b
Description: Purified anti-muENG mE12 and anti-huENG A5 antibodies were analyzed in ELISA for binding to recombinant ENG and using flow cytometry analysis (FACS).
(§1) Purified proteins A5-IgG and mE12-IgG were characterized by SDS-PAGE and size exclusion chromatography. Bioactivity was analyzed by ELISA, using recombinant mouse/human ENG and detection of bound antibodies with HRP-conjugated anti-human IgG antibodies. Cell binding was analyzed by flow cytometry, using ENG-positive HT1080 and ENG expressing mouse eEnd2. Melting points were determined by dynamic light scattering using a zetasizer nano. Affinities were determined by QCM using an Attana A100. Internalization study was performed by indirect immunofluorescence confocal microscopy on permeabilized cells, detecting bound and internalized antibodies with a FITC-labeled secondary antibody.

[8] = tested on: HT1080 cells; test: Internalization by indirect immunofluorescence confocal microscopy; assay type: cell-based, human
Description: as §1
Preliminary internalization studies indicate rapid cellular internalization for A5-IgG against cells expressing human ENG. Indeed within 30 min, almost 90% of the A5-IgG is found within HT1080 cells.

[9] = Melting point by dynamic light scattering (zetasizer nano); assay type: physicochemical; conditions: thermal stability
Description: as §1

**Q.** Which IC50 ([1]; Homo sapiens, HT-1080) does the source give for `CCCO[C@H](C[C@H](C(C)C)N(CCC)C(=O)[C@@H](NC(=O)[C@H]1CCCCN1C)[C@@H](C)CC)c1nc(C(=O)N[C@@H](Cc2ccc(O)cc2)C[C@H](C)C(=O)NNC(=O)OCCOCCOCCOCCNC(=O)CCCCCN2C(=O)C=CC2=O)cs1` [TAM552] here?
**A.** The IC50 was 10 nM.

**Q.** For `CC[C@H](C)[C@@H]([C@@H](CC(=O)N1CCC[C@H]1[C@H](OC)[C@@H](C)C(=O)N[C@H](C)[C@@H](O)c1ccccc1)OC)N(C)C(=O)[C@@H](NC(=O)[C@@H](NC)C(C)C)C(C)C` [MMAE, reference compound] (H-[NMeV]V[Dil][Dolaproine]-X2), which IC50 [1] is on record?
**A.** Its IC50 is 0.1 to 0.6 nM.

**Q.** For `CCCO[C@H](C[C@H](C(C)C)N(CCC)C(=O)[C@@H](NC(=O)[C@H]1CCCCN1C)[C@@H](C)CC)c1nc(C(=O)N[C@@H](Cc2ccc(O)cc2)C[C@H](C)C(=O)NNC(=O)OCc2ccc(NC(=O)[C@@H](CCCNC(N)=O)NC(=O)[C@H](NC(=O)CCCCCN3C(=O)C=CC3=O)C(C)C)cc2)cs1` [TAM471, Maleimido-Val-Cit-PABOCO-Tubulysin/Cytolysin-TAM470], which IC50 ([1]; Homo sapiens, HT-1080) is on record?
**A.** The IC50 was 17 to 42 nM.

**Q.** With `CCCO[C@H](C[C@H](C(C)C)N(CCC)C(=O)[C@@H](NC(=O)C(C(C)C(=O)OCc1ccc(NC(=O)[C@H](CCCNC(N)=O)NC(=O)[C@@H](NC(=O)CCCCCN2C(=O)C=CC2=O)C(C)C)cc1)[C@@H](C)CC)[C@@H](C)CC)c1nc(C(=O)N[C@@H](Cc2ccccc2)C[C@H](C)C(=O)O)cs1` (stereo partly shown) [TAM551] as the molecule, how does the IC50 ([1]; Homo sapiens, HT-1080) read?
**A.** Its IC50 is 90 nM.

**Q.** Which IC50 ([1]; Homo sapiens, HT-1080) does the source give for `CCCO[C@H](C[C@H](C(C)C)N(CCC)C(=O)C(NC(=O)[C@H]1CCCCN1C(=O)OCc1ccc(NC(=O)[C@H](CCCNC(N)=O)NC(=O)[C@@H](NC(=O)CCCCCN2C(=O)C=CC2=O)C(C)C)cc1)[C@@H](C)CC)c1nc(C(=O)N[C@@H](Cc2ccc(O)cc2)C[C@H](C)C(=O)OC)cs1` (stereo partly drawn) [TAM467, Maleimido-Val-Cit-PABOCO-Tubulysin/Cytolysin-TAM461] ({Hexanoyl(6-maleimido)}-V[Cit][PABC][dPip][ξIle][NPrTuv(OPr)]-X1) here?
**A.** The IC50 was 230 to 420 nM.

**Q.** For `CC[C@H](C)[C@H](NC(=O)[C@H]1CCCCN1C)C(=O)N(COC(=O)CC(C)C)[C@H](C[C@@H](OC(C)=O)c1nc(C(=O)N[C@@H](Cc2ccc(O)cc2)C[C@H](C)C(=O)O)cs1)C(C)C` [Tubulysin A, reference compound], which IC50 [1] is on record?
**A.** Its IC50 is 0.04 to 0.2 nM.

**Q.** Which results are given for “Nigrin b: native (WT) Nigrin b, type 2 ribosome-inactivating protein with A and B chains”?
**A.** IC50 [2]: ~20 nM; IC50 [3]: ~0.0025 nM; Mouse LD50 [4]: 12,000.00 μgkg^−1

B1: OMTX505: recNgA immunoconjugate tested in vivo (conjugate)
heavy: QVQLVQSGAEVKKPGASVKVSCKASGYTFTENIIHWVRQAPGQGLEWMGWFHPGSGSIKYNEKFKDRVTMTADTSTSTVYMELSSLRSEDTAVYYCARHGGTGRGAMDYWGQGTLVTVSSASTKGPSVFPLAPSSKSTSGGTAALGCLVKDYFPEPVTVSWNSGALTSGVHTFPAVLQSSGLYSLSSVVTVPSSSLGTQTYICNVNHKPSNTKVDKKVEPKSCDKTHTCPPCPAPPVAGPSVFLFPPKPKDTLMISRTPEVTCVVVDVSHEDPEVKFNWYVDGVEVHNAKTKPREEQYNSTYRVVSVLTVLHQDWLNGKEYKCKVSNKGLPSSIEKTISKAKGQPREPQVYTLPPSRDELTKNQVSLTCLVKGFYPSDIAVEWESNGQPENNYKTTPPVLDSDGSFFLYSKLTVDKSRWQQGNVFSCSVMHEALHNHYTQKSLSLSPGK
light: DIQMTQSPSSLSASVGDRVTITCRASKSVSTSAYSYMHWYQQKPGKAPKLLIYLASNLESGVPSRFSGSGSGTDFTLTISSLQPEDFATYYCQHSRELPYTFGQGTKLEIKRTVAAPSVFIFPPSDEQLKSGTASVVCLLNNFYPREAKVQWKVDNALQSGNSQESVTEQDSKDSTYSLSSTLTLSKADYEKHKVYACEVTHQGLSSPVTKSFNRGEC
chain: MIDYPSVSFNLDGAKSATYRDFLSNLRKTVATGTYEVNGLPVLRRESEVQVKSRFVLVPLTNYNGNTVTLAVDVTNLYVVAFSGNANSYFFKDATEVQKSNLFVGTKQNTLSFTGNYDNLETAANTRRESIELGPSPLDGAITSLYHGDSVARSLLVVIQMVSEAARFRYIEQEVRRSLQQATSFTPNALMLSMENNWSSMSLEIQQAGNNVSPFFGTVQLLNYDHTHRLVDNFEELYKITGIAILLFRCSSPSND
**Q.** Which results are given for B1?
**A.** in vivo anti-tumoral efficacy ([5]; 0.5 mg/kg, once a week i.p. over 5 weeks, single agent): 60%; tumor growth inhibition ([5]; combined with Gemcitabine, tumor regression): 100%

B2: A5-IgG1: human anti-human Endoglin IgG1; heavy chain SEQ ID NO: 3, light chain SEQ ID NO: 4; ADCC/CDC deficient (antibody)
heavy: EVQLLESGGGLVQPGGSLRLSCAASGFTFSSYAMSWVRQAPGKGLEWVSAIYGSDGDTTYADSVKGRFTISRDNSKNTLYLQMNSLRAEDTAVYYCARVFYTAGFDYWGQGTLVTVSSASTKGPSVFPLAPSSKSTSGGTAALGCLVKDYFPEPVTVSWNSGALTSGVHTFPAVLQSSGLYSLSSVVTVPSSSLGTQTYICNVNHKPSNTKVDKKVEPKSCDKTHTCPPCPAPPVAGPSVFLFPPKPKDTLMISRTPEVTCVVVDVSHEDPEVKFNWYVDGVEVHNAKTKPREEQYNSTYRVVSVLTVLHQDWLNGKEYKCKVSNKGLPSSIEKTISKAKGQPREPQVYTLPPSRDELTKNQVSLTCLVKGFYPSDIAVEWESNGQPENNYKTTPPVLDSDGSFFLYSKLTVDKSRWQQGNVFSCSVMHEALHNHYTQKSLSLSPGK
light: DIELTQSPSSLSASVGDRVTITCRASQSISSSLNWYQQKPGKAPKLLIYAASSLQSGVPSRFSGSGSGTDFTLTISSLQPEDFATYYCQQAPAKPPTFGQGTKLEIKRTVAAPSVFIFPPSDEQLKSGTASVVCLLNNFYPREAKVQWKVDNALQSGNSQESVTEQDSKDSTYSLSSTLTLSKADYEKHKVYACEVTHQGLSSPVTKSFNRGEC
modifications: Synthetic sequence A5-IgG1-HC - without signal sequence; Synthetic sequence A5-IgG1-LC - without signal sequence
**Q.** With B2 as the molecule, how does the “binding to human ENG by ELISA, in words” value [6] read?
**A.** Its value is “concentration-dependent binding”.

**Q.** What about the “binding to human ENG by flow cytometry, in words” value [7] of the same molecule?
**A.** The value was “concentration-dependent binding”.

**Q.** What about the “internalization (time)” value ([8]; HT1080) of the same molecule?
**A.** Its value is 30 to 60 min.

**Q.** What about the “share of antibody found within cells” value ([8]; HT1080 cells, within 30 min, preliminary) of the same molecule?
**A.** The value was ~90%.

**Q.** And the “Tm (DLS)” value [9]?
**A.** Its value is 72 °C.
